Test results taken from patent US20250051446A1 (OSE IMMUNOTHERAPEUTICS, published 2025).

Target: T1, human CD28 on peripheral blood CD3+ T lymphocytes (human, UniProt P10747 19-220)
T1 construct: whole, on cells; Target of the receptor occupancy flow cytometry assay on blood T cells of study subjects; also called CD28 receptor
Assay: Kd recalculated in the PK/target engagement model from receptor occupancy observed by flow cytometry in humans (cohort A); not a direct in vitro measurement

B1: FR104, humanized pegylated monovalent anti-CD28 Fab' antibody fragment (Fab, V domains shown)
VH: QVQLQQSGAELKKPGASVKVSCKASGYTFTEYIIHWIKLRSGQGLEWIGWFYPGSNDIQYNAQFKGKATLTADKSSSTVYMELTGLTPEDSAVYFCARRDDFSGYDALPYWGQGTLVTVSA
VL: DIQMTQSPSSLSASVGDRVTITCKTNENIYSNLAWYQQKDGKSPQLLIYAATHLVEGVPSRFSGSGSGTQYSLTISSLQPEDFGNYYCQHFWGTPCTFGGGTKLEIKR
modifications: pegylated at its C-terminus: bi-branched 2x20 kDa PEG linked to the C-terminal cysteine via a maleimide ring
notes: also called FR104-PEG; anti-CD28.3 Fab
Kd: ~0.3 nM
